The values that follow come from paper PMC6966814, “Receptor kinase FERONIA regulates flowering time in Arabidopsis”.

For data set [1], the target named is T1, GST-CCA1 (… CLOCK-ASSOCIATED1) (Arabidopsis thaliana, UniProt P92973 1-608). Nature of the data set: EMSA; 20 fmol probe, 5 ug protein; EMSA: 100 mM Tris-HCl pH 8.0, 5 mM DTT, 2.5 mM EDTA, 0.25% Triton X-100, 25% glycerin; competitor 15 min then probe 20 min; 4% native PAGE, 0.5x TBE; temperature not stated. The conditions noted are these: protein: recombinant; label: FITC on strand 1 (S35; printed after its 3' end); blunt. (Mobility shift assays separate free from complexed probe on a gel.)
T1 sequence (P92973 whole entry): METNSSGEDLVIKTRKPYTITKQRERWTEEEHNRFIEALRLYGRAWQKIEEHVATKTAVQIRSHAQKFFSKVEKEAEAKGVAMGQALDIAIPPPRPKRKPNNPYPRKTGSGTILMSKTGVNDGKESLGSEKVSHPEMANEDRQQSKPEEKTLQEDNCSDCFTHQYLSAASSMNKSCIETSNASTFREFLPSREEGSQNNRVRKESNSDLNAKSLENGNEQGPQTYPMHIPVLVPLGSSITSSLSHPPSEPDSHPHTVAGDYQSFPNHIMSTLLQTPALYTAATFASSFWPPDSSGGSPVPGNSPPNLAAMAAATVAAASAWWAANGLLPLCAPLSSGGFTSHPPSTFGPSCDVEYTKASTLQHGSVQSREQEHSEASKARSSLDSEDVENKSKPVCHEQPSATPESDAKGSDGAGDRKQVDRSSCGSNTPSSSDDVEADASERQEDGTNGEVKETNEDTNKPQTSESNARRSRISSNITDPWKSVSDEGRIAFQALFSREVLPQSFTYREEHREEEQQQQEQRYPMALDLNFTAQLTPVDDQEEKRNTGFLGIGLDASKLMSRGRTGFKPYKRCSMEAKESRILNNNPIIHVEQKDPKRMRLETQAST

In data set [2] the target is T1, GST-CCA1 (… CLOCK-ASSOCIATED1). Nature of the data set: competition (EMSA); 100x unlabeled competitor vs FITC-pFER; did not compete; EMSA: 100 mM Tris-HCl pH 8.0, 5 mM DTT, 2.5 mM EDTA, 0.25% Triton X-100, 25% glycerin; competitor 15 min then probe 20 min; 4% native PAGE, 0.5x TBE; temperature not stated. The conditions noted are these: protein: recombinant; label: none; blunt.

For data set [3] the target is unchanged. Nature of the data set: competition (EMSA); 100x unlabeled competitor vs FITC-pFER; EMSA: 100 mM Tris-HCl pH 8.0, 5 mM DTT, 2.5 mM EDTA, 0.25% Triton X-100, 25% glycerin; competitor 15 min then probe 20 min; 4% native PAGE, 0.5x TBE; temperature not stated. The conditions noted are these: protein: recombinant; label: none; blunt.

B1: pFER probe (EE element), FITC (dsDNA)
DNA 1: TCTCCCCCAAAATATCTCTGTCTTC
DNA 2: GAAGACAGAGATATTTTGGGGGAGA
Turning to B1, the binding result in data set [1] is recorded as “binds”.

B2: pFER-Mutant competitor B (AAATATCT to GGGGGGGG) (dsDNA)
DNA 1: TCTCCCCCAGGGGGGGGCTGTCTTC
DNA 2: GAAGACAGCCCCCCCCTGGGGGAGA
B2: the binding result in data set [2] was “no binding”.

B3: pFER competitor A (unlabeled WT) (dsDNA)
DNA 1: TCTCCCCCAAAATATCTCTGTCTTC
DNA 2: GAAGACAGAGATATTTTGGGGGAGA
As for B3, in data set [3], the binding result is listed as “binds”.
